In PMC4615246 one finds percent of transfected cells showing colocalization data, which are given here for one molecule.

The assay addresses T1, LacI-CFP-Nup50 (human), Q9UKX7.
T1 chain: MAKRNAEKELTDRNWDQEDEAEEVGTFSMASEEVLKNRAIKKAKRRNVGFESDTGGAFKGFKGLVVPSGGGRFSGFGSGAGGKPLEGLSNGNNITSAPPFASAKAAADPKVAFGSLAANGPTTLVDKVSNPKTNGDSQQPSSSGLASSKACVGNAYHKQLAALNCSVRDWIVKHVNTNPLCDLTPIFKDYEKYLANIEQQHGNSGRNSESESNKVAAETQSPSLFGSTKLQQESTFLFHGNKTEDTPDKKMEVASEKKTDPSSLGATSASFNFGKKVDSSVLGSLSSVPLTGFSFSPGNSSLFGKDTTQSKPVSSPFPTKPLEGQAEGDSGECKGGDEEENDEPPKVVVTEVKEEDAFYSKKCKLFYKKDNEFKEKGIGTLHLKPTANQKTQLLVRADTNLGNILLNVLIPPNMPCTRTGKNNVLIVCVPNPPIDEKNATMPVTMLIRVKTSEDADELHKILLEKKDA
The assay can be described thus: LacI/LacO array recruitment in cells. The settings on record: remark: other sources report otherwise.

B1: Nup93 (endogenous), Q8N1F7 1-819 (natural protein)
chain: MDTEGFGELLQQAEQLAAETEGISELPHVERNLQEIQQAGERLRSRTLTRTSQETADVKASVLLGSRGLDISHISQRLESLSAATTFEPLEPVKDTDIQGFLKNEKDNALLSAIEESRKRTFGMAEEYHRESMLVEWEQVKQRILHTLLASGEDALDFTQESEPSYISDVGPPGRSSLDNIEMAYARQIYIYNEKIVNGHLQPNLVDLCASVAELDDKSISDMWTMVKQMTDVLLTPATDALKNRSSVEVRMEFVRQALAYLEQSYKNYTLVTVFGNLHQAQLGGVPGTYQLVRSFLNIKLPAPLPGLQDGEVEGHPVWALIYYCMRCGDLLAASQVVNRAQHQLGEFKTWFQEYMNSKDRRLSPATENKLRLHYRRALRNNTDPYKRAVYCIIGRCDVTDNQSEVADKTEDYLWLKLNQVCFDDDGTSSPQDRLTLSQFQKQLLEDYGESHFTVNQQPFLYFQVLFLTAQFEAAVAFLFRMERLRCHAVHVALVLFELKLLLKSSGQSAQLLSHEPGDPPCLRRLNFVRLLMLYTRKFESTDPREALQYFYFLRDEKDSQGENMFLRCVSELVIESREFDMILGKLENDGSRKPGVIDKFTSDTKPIINKVASVAENKGLFEEAAKLYDLAKNADKVLELMNKLLSPVVPQISAPQSNKERLKNMALSIAERYRAQGISANKFVDSTFYLLLDLITFFDEYHSGHIDRAFDIIERLKLVPLNQESVEERVAAFRNFSDEIRHNLSEVLLATMNILFTQFKRLKGTSPSSSSRPQRVIEDRDSQLRSQARTLITFAGMIPYRTSGDTNARLVQMEVLMN
For B1, the percent of transfected cells showing colocalization was found to be 28%.
